Assay results taken from patent publication US20230250154A1 (CYTONICS, published 2023).

T1: MMP1 (human, UniProt P03956 100-469, limits assumed)
T1 sequence (looked up): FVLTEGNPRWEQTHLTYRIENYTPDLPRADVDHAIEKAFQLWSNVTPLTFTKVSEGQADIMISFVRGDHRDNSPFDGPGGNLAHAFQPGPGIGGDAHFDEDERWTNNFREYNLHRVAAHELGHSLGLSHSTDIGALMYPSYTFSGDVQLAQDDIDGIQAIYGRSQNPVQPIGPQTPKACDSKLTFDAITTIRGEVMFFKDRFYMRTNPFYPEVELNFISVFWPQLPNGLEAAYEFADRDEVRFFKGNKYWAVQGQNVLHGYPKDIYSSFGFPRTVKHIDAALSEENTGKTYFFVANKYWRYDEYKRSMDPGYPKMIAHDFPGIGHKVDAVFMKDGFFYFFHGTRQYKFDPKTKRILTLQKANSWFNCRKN

T2: Cathepsin G (UniProt P08311 21-244)
T2 sequence (looked up): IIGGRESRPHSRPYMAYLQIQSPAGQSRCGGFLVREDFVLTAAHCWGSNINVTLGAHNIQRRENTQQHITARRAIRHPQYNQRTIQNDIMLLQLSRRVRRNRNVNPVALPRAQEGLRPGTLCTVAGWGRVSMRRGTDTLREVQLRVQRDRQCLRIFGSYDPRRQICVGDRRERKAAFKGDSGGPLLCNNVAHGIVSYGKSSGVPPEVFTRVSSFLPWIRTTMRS


What was measured:
Experiment in all cases: cell-based or functional assay
MMP1 = biological target: T1, MMP1
Cathepsin G = biological target: T2, Cathepsin G
Elastase = biological target: Elastase

Binder | Protease Inhibition (% of WT) (MMP1) | Protease Inhibition (% of WT) (Cathepsin G) | Protease Inhibition (% of WT) (Elastase)
Variant A2M, bait region SEQ ID NO 142 (other) SVSGKPQYMVLVPSLLHTETTEKGCVLLSYLNETVTVSASLESVRGNRSLFTDLEAENDVLHCVAFAVPKSSSNEEVMFLTVQVKGPTQEFKKRTTVMVKNEDSLVFVQTDKSIYKPGQTVKFRVVSMDENFHPLNELIPLVYIQDPKGNRIAQWQSFQLEGGLKQFSFPLSSEPFQGSYKVVVQKKSGGRTEHPFTVEEFVLPKFEVQVTVPKIITILEEEMNVSVCGLYTYGKPVPGHVTVSICRKYSDASDCHGEDSQAFCEKFSGQLNSHGCFYQQVKTKVFQLKRKEYEMKLHTEAQIQEEGTVVELTGRQSSEITRTITKLSFVKVDSHFRQGIPFFGQVRLVDGKGVPIPNKVIFIRGNEANYYSNATTDEHGLVQFSINTTNVMGTSLTVRVNYKDRSPCYGYQWVSEEHEEAHHTAYLVFSPSKSFVHLEPMSHELPCGHTQTVQAHYILNGGTLLGLKKLSFYYLIMAKGGIVRTGTHGLLVKQEDMKGHFSISIPVKSDIAPVARLLIYAVLPTGDVIGDSAKYDVENCLANKVDLSFSPSQSLPASHAHLRVTAAPQSVCALRAVDQSVLLMKPDAELSASSVYNLLPEKDLTGFPGPLNDQDDEDCINRHNVYINGITYTPVSSTNEKDMYSFLEDMGLKAFTNSKIRKPKMCPQLEQYEMHGPSELEGRGSIPENFFGVEGEGEGEGKEEEGLGSVEEPHTKLRKYFPETWIWDLVVVNSAGVAEVGVTVPDTITEWKAGAFCLSEDAGLGISSTASLRAFQPFFVELTMPYSVIRGEAFTLKATVLNYLPKCIRVSVQLEASPAFLAVPVEKEQAPHCICANGRQTVSWAVTPKSLGNVNFTVSAEALESQELCGTEVPSVPEHGRKDTVIKPLLVEPEGLEKETTFNSLLCPSGGEVSEELSLKLPPNVVEESARASVSVLGDILGSAMQNTQNLLQMPYGCGEQNMVLFAPNIYVLDYLNETQQLTPEIKSKAIGYLNTGYQRQLNYKHYDGSYSTFGERYGRNQGNTWLTAFVLKTFAQARAYIFIDEAHITQALIWLSQRQKDNGCFRSSGSLLNNAIKGGVEDEVTLSAYITIALLEIPLTVTHPVVRNALFCLESAWKTAQEGDHGSHVYTKALLAYAFALAGNQDKRKEVLKSLNEEAVKKDNSVHWERPQKPKAPVGHFYEPQAPSAEVEMTSYVLLAYLTAQPAPTSEDLTSATNIVKWITKQQNAQGGFSSTQDTVVALHALSKYGAATFTRTGKAAQVTIQSSGTFSSKFQVDNNNRLLLQQVSLPELPGEYSMKVTGEGCVYLQTSLKYNILPEKEEFPFALGVQTLPQTCDEPKAHTSFQISLSVSYTGSRSASNMAIVDVKMVSGFIPLKPTVKMLERSNHVSRTEVSSNHVLIYLDKVSNQTLSLFFTVLQDVPVRDLKPAIVKVYDYYETDEFAIAEYNAPCSKDLGNADYKDDDDKGASHHHHHH | 350 % of WT | 300 % of WT | 200 % of WT
Variant A2M, bait region SEQ ID NO 139 (other) SVSGKPQYMVLVPSLLHTETTEKGCVLLSYLNETVTVSASLESVRGNRSLFTDLEAENDVLHCVAFAVPKSSSNEEVMFLTVQVKGPTQEFKKRTTVMVKNEDSLVFVQTDKSIYKPGQTVKFRVVSMDENFHPLNELIPLVYIQDPKGNRIAQWQSFQLEGGLKQFSFPLSSEPFQGSYKVVVQKKSGGRTEHPFTVEEFVLPKFEVQVTVPKIITILEEEMNVSVCGLYTYGKPVPGHVTVSICRKYSDASDCHGEDSQAFCEKFSGQLNSHGCFYQQVKTKVFQLKRKEYEMKLHTEAQIQEEGTVVELTGRQSSEITRTITKLSFVKVDSHFRQGIPFFGQVRLVDGKGVPIPNKVIFIRGNEANYYSNATTDEHGLVQFSINTTNVMGTSLTVRVNYKDRSPCYGYQWVSEEHEEAHHTAYLVFSPSKSFVHLEPMSHELPCGHTQTVQAHYILNGGTLLGLKKLSFYYLIMAKGGIVRTGTHGLLVKQEDMKGHFSISIPVKSDIAPVARLLIYAVLPTGDVIGDSAKYDVENCLANKVDLSFSPSQSLPASHAHLRVTAAPQSVCALRAVDQSVLLMKPDAELSASSVYNLLPEKDLTGFPGPLNDQDDEDCINRHNVYINGITYTPVSSTNEKDMYSFLEDMGLKAFTNSKIRKPKMCPQLEQYEMHGPSEDLVVQIEGEGEGEGIPENFFGVEAIPMSIPTEPHTKLRKYFPETWIWDLVVVNSAGVAEVGVTVPDTITEWKAGAFCLSEDAGLGISSTASLRAFQPFFVELTMPYSVIRGEAFTLKATVLNYLPKCIRVSVQLEASPAFLAVPVEKEQAPHCICANGRQTVSWAVTPKSLGNVNFTVSAEALESQELCGTEVPSVPEHGRKDTVIKPLLVEPEGLEKETTFNSLLCPSGGEVSEELSLKLPPNVVEESARASVSVLGDILGSAMQNTQNLLQMPYGCGEQNMVLFAPNIYVLDYLNETQQLTPEIKSKAIGYLNTGYQRQLNYKHYDGSYSTFGERYGRNQGNTWLTAFVLKTFAQARAYIFIDEAHITQALIWLSQRQKDNGCFRSSGSLLNNAIKGGVEDEVTLSAYITIALLEIPLTVTHPVVRNALFCLESAWKTAQEGDHGSHVYTKALLAYAFALAGNQDKRKEVLKSLNEEAVKKDNSVHWERPQKPKAPVGHFYEPQAPSAEVEMTSYVLLAYLTAQPAPTSEDLTSATNIVKWITKQQNAQGGFSSTQDTVVALHALSKYGAATFTRTGKAAQVTIQSSGTFSSKFQVDNNNRLLLQQVSLPELPGEYSMKVTGEGCVYLQTSLKYNILPEKEEFPFALGVQTLPQTCDEPKAHTSFQISLSVSYTGSRSASNMAIVDVKMVSGFIPLKPTVKMLERSNHVSRTEVSSNHVLIYLDKVSNQTLSLFFTVLQDVPVRDLKPAIVKVYDYYETDEFAIAEYNAPCSKDLGNADYKDDDDKGASHHHHHH | 400 % of WT | 200 % of WT | 200 % of WT
